Source: the supplement of paper PMC7877785
± gives the uncertainty stated by the source.

Experiment: self-splicing fitness, log relative to wild type (ln ratio); higher = more splicing; Tetrahymena group I intron in knt gene, E. coli kanamycin selection, DiMSum; sequences stand for … in CUCUCU…GGAGGGAAAAGUUAUCAGGCAUGCACCUGGUAGCUAGUCUUUAAACCAAUAGAUUGCAUCGGUUUAAAAGGCAAGACCGUCAAAUUGCGGGAAAGGGGUCAACAGCCGUUCAGUACCAAGUCUCAGGGGAAACUUUGAGAUGGCCUUGCAAAGGGUAUGGUAAUAAGCUGACGGACAUGGUCCUAACCACGCAGCCAAGUCCUAAGUCAACAGAUCUUCUGUUGAUAUGGAUGCAGUUCACAGACUAAAUGUCGGUCGGGGAAGAUGUAUUCUUCUCAUAAGAUAUAGUCGGACCUCUCCUUAAUGGGAGCUAGCGGAUGAAGUGAUGCAACACUGGAGCCGCUGGGAACUAAUUUGUAUGCGAAAGUAUAUUGAUUAGUUUUGGAGUACUCGUGGUCG
Procedure, shortened: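 DiMSum derived fitness as the error-weighted combination of fold changes across replicates, kanamycin versus no kanamycin, normalised to wild type. E. coli BL21(DE3) held the library, which randomised all eight P1ex-region intron nucleotides within the knt kanamycin-resistance gene on pET-22b(+). Six replicate transformations grew overnight at 37°C or 30°C on LB agar with or without 25 μg/mL kanamycin, also containing 100 μg/mL carbenicillin, 50 μM IPTG and 0.2% rhamnose, and pooled colonies were amplicon-sequenced on an Illumina HiSeq 2500.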

Sequence | self-splicing fitness (ln) (30 °C) | self-splicing fitness (ln) (37 °C)
UGGGAGCAAUAUUACGGGUA | -2.68 ± 0.32 | -2.33 ± 0.37
UGGGAGCAAUAUUACGUAUG | -3.01 ± 0.14 | -1.84 ± 0.22
UGGGAGCAAUAUUACGUGCG | -1.56 ± 0.11 | -0.551 ± 0.14
UGGGAGCAAUAUUACGUUAA | -2.76 ± 0.33 | –
UGGGAGCAAUAUUACGUUCA | -0.406 ± 0.091 | -0.266 ± 0.12
UGGUAGCAAUAUUACGACAU | -1.39 ± 0.015 | -0.583 ± 0.034
UGGUAGCAAUAUUACGACUC | -0.656 ± 0.23 | -0.807 ± 0.35
UGGUAGCAAUAUUACGAGGU | -2.63 ± 0.45 | -2.6 ± 0.35
UGGUAGCAAUAUUACGAUCG | 0.32 ± 0.085 | 0.623 ± 0.11
UGGUAGCAAUAUUACGAUGA | -0.831 ± 0.13 | -0.597 ± 0.19
UGGUAGCAAUAUUACGAUUA | -0.395 ± 0.055 | 0.0463 ± 0.066
UGGUAGCAAUAUUACGCGGU | – | -2.58 ± 0.45
UGGUAGCAAUAUUACGCUCG | 0.322 ± 0.17 | 0.532 ± 0.25
UGGUAGCAAUAUUACGCUUG | -0.988 ± 0.092 | -0.402 ± 0.11
UGGUAGCAAUAUUACGGCUA | -1.37 ± 0.2 | -0.75 ± 0.19
UGGUAGCAAUAUUACGGGAU | -3.14 ± 0.36 | -2.32 ± 0.28
UGGUAGCAAUAUUACGUAGC | -1.3 ± 0.2 | -0.833 ± 0.27
UGGUAGCAAUAUUACGUCUU | -0.526 ± 0.12 | 0.37 ± 0.13
UGGUAGCAAUAUUACGUGCC | -1.42 ± 0.21 | -2.45 ± 0.39
UGGUAGCAAUAUUACGUUAC | -2.42 ± 0.37 | –
UGGUAGCAAUAUUACGUUAG | -1.9 ± 0.067 | -0.599 ± 0.072
UGGUAGCAAUAUUACGUUUU | -3.96 ± 0.24 | -2.32 ± 0.16
UGUAAGCAAUAUUACGAAGC | -3.44 ± 0.28 | -2.61 ± 0.34
UGUAAGCAAUAUUACGACUG | -0.779 ± 0.11 | -1.14 ± 0.14
UGUAAGCAAUAUUACGAGAG | -3.81 ± 0.23 | -1.87 ± 0.25

Sequence | self-splicing fitness (ln) (30 °C) | self-splicing fitness (ln) (37 °C)
UGUAAGCAAUAUUACGAGCC | -1.57 ± 0.35 | -0.838 ± 0.43
UGUAAGCAAUAUUACGCAAG | -2.85 ± 0.39 | -2.66 ± 0.44
UGUAAGCAAUAUUACGCCAU | -3.9 ± 0.27 | -3.35 ± 0.3
UGUAAGCAAUAUUACGGAAU | – | -2.49 ± 0.26
UGUAAGCAAUAUUACGGACG | -0.142 ± 0.11 | 0.762 ± 0.14
UGUAAGCAAUAUUACGUACC | -1.07 ± 0.34 | -0.216 ± 0.26
UGUAAGCAAUAUUACGUAGA | -0.696 ± 0.12 | -0.209 ± 0.16
UGUAAGCAAUAUUACGUUGA | -2.71 ± 0.18 | -1.28 ± 0.16
UGUAAGCAAUAUUACGUUGU | -3.79 ± 0.21 | -2.98 ± 0.29
UGUCAGCAAUAUUACGACUA | -0.425 ± 0.073 | 0.686 ± 0.11
UGUCAGCAAUAUUACGAGAC | – | -2.91 ± 0.29
UGUCAGCAAUAUUACGAUAU | -1.6 ± 0.13 | -0.448 ± 0.13
UGUCAGCAAUAUUACGAUCU | -0.397 ± 0.091 | 0.0205 ± 0.1
UGUCAGCAAUAUUACGCCCU | -0.458 ± 0.13 | -0.00845 ± 0.19
UGUCAGCAAUAUUACGCCUA | -0.234 ± 0.12 | 0.77 ± 0.16
UGUCAGCAAUAUUACGCCUC | -2.62 ± 0.42 | –
UGUCAGCAAUAUUACGCGCC | -0.7 ± 0.18 | -0.523 ± 0.23
UGUCAGCAAUAUUACGCGGG | -3.8 ± 0.3 | -1.73 ± 0.26
UGUCAGCAAUAUUACGCUUC | – | -1.76 ± 0.21
UGUCAGCAAUAUUACGGAUA | -1.37 ± 0.1 | -0.339 ± 0.12
UGUCAGCAAUAUUACGGCCC | -1.78 ± 0.41 | -0.199 ± 0.4
UGUCAGCAAUAUUACGGCGA | -0.34 ± 0.093 | -0.0234 ± 0.1
UGUCAGCAAUAUUACGGCGC | -2.76 ± 0.21 | -1.65 ± 0.19
UGUCAGCAAUAUUACGGUGA | -0.413 ± 0.094 | -0.355 ± 0.12
UGUCAGCAAUAUUACGUACA | -0.576 ± 0.11 | -0.0735 ± 0.13

Sequence | self-splicing fitness (ln) (30 °C) | self-splicing fitness (ln) (37 °C)
UGUCAGCAAUAUUACGUAUA | -0.245 ± 0.067 | 0.374 ± 0.087
UGUCAGCAAUAUUACGUCAA | -0.787 ± 0.077 | -0.0175 ± 0.076
UGUCAGCAAUAUUACGUGAU | -2.85 ± 0.13 | -1.81 ± 0.14
UGUCAGCAAUAUUACGUGUU | -3.51 ± 0.15 | -1.23 ± 0.11
UGUGAGCAAUAUUACGACAG | -1.7 ± 0.1 | -1.59 ± 0.12
UGUGAGCAAUAUUACGACAU | -3.682 ± 0.033 | -2.45 ± 0.042
UGUGAGCAAUAUUACGACGA | -0.898 ± 0.14 | 0.278 ± 0.14
UGUGAGCAAUAUUACGAGAG | -3.57 ± 0.23 | -2.44 ± 0.22
UGUGAGCAAUAUUACGAUUG | -2.19 ± 0.26 | -0.226 ± 0.26
UGUGAGCAAUAUUACGCAAU | -4.42 ± 0.42 | -2.73 ± 0.31
UGUGAGCAAUAUUACGCGAA | -4.12 ± 0.29 | -2.54 ± 0.18
UGUGAGCAAUAUUACGCUAU | – | -1.9 ± 0.3
UGUGAGCAAUAUUACGCUGG | -2.49 ± 0.28 | -2.71 ± 0.37
UGUGAGCAAUAUUACGGAGA | -3.34 ± 0.28 | -2.29 ± 0.31
UGUGAGCAAUAUUACGGCUA | -0.645 ± 0.13 | -0.508 ± 0.15
UGUGAGCAAUAUUACGGGGC | -3.14 ± 0.39 | -2.25 ± 0.33
UGUGAGCAAUAUUACGGUCA | -0.959 ± 0.056 | -0.333 ± 0.069
UGUGAGCAAUAUUACGGUUA | -2.47 ± 0.2 | -0.332 ± 0.16
UGUGAGCAAUAUUACGUAGU | -2.87 ± 0.24 | -3.06 ± 0.35
UGUGAGCAAUAUUACGUAUU | -3.12 ± 0.16 | -2.63 ± 0.26
UGUGAGCAAUAUUACGUUAC | -3.75 ± 0.37 | -2.6 ± 0.38
UGUGAGCAAUAUUACGUUCG | -3.41 ± 0.22 | -1.32 ± 0.15
UGUUAGCAAUAUUACGAAAG | -2.64 ± 0.14 | -2.73 ± 0.25
UGUUAGCAAUAUUACGACGC | -1.59 ± 0.2 | -1.47 ± 0.32
UGUUAGCAAUAUUACGAGAG | -3.33 ± 0.33 | -3.15 ± 0.27

Sequence | self-splicing fitness (ln) (30 °C) | self-splicing fitness (ln) (37 °C)
UGUUAGCAAUAUUACGAGUG | -0.0674 ± 0.16 | -0.336 ± 0.18
UGUUAGCAAUAUUACGAUCC | -0.915 ± 0.34 | –
UGUUAGCAAUAUUACGAUUA | -0.127 ± 0.093 | 0.424 ± 0.11
UGUUAGCAAUAUUACGCACG | -0.922 ± 0.11 | -0.377 ± 0.12
UGUUAGCAAUAUUACGCAGG | -3.96 ± 0.35 | -2.96 ± 0.25
UGUUAGCAAUAUUACGCCGC | -3.34 ± 0.45 | –
UGUUAGCAAUAUUACGCGAC | -3.75 ± 0.4 | -1.59 ± 0.5
UGUUAGCAAUAUUACGCGUG | -0.492 ± 0.11 | -0.61 ± 0.099
UGUUAGCAAUAUUACGCUAU | -3.53 ± 0.49 | -1.29 ± 0.32
UGUUAGCAAUAUUACGCUUG | -2.03 ± 0.14 | -0.556 ± 0.12
UGUUAGCAAUAUUACGGCAA | -0.875 ± 0.15 | -0.17 ± 0.14
UGUUAGCAAUAUUACGGGCG | -0.142 ± 0.11 | 0.388 ± 0.12
UGUUAGCAAUAUUACGUCGG | -0.97 ± 0.1 | -0.8 ± 0.17
UGUUAGCAAUAUUACGUGCC | -2.05 ± 0.17 | -0.583 ± 0.21
UGUUAGCAAUAUUACGUGUC | -3.15 ± 0.33 | -1.48 ± 0.28
UGUUAGCAAUAUUACGUUGC | -2.88 ± 0.24 | -1.62 ± 0.26
UGUUAGCAAUAUUACGUUGG | -1.56 ± 0.11 | -1.26 ± 0.14
UUAAAGCAAUAUUACGAUAA | 0.359 ± 0.084 | 0.431 ± 0.1
UUAAAGCAAUAUUACGAUCC | -1.64 ± 0.18 | -0.49 ± 0.24
UUAAAGCAAUAUUACGCAUU | -2.76 ± 0.15 | -2.86 ± 0.27
UUAAAGCAAUAUUACGCCAA | 0.638 ± 0.29 | -0.283 ± 0.39
UUAAAGCAAUAUUACGCCAG | 0.134 ± 0.17 | -1.25 ± 0.21
UUAAAGCAAUAUUACGGAAU | -3.11 ± 0.17 | -1.73 ± 0.17
